How the values were obtained:
Assay in all cases: ITC
[1] = target: G3BP1_(NTF2) F124A mutant (human, UniProt Q13283 1-139, F124A)
G3BP1_(NTF2) Q18A mutant = G3BP1_(NTF2) Q18A mutant (human, UniProt Q13283 1-139, Q18A)
G3BP1_(NTF2) F33A mutant = G3BP1_(NTF2) F33A mutant (human, UniProt Q13283 1-139, F33A)
G3BP1_(NTF2) V11A mutant = G3BP1_(NTF2) V11A mutant (human, UniProt Q13283 1-139, V11A)
[2] = target: NTF2-like domain of human G3BP1 (residues 1-139) (human, UniProt Q13283 1-139)
Chain of NTF2-like domain of human G3BP1 (residues 1-139) (Q13283 1-139): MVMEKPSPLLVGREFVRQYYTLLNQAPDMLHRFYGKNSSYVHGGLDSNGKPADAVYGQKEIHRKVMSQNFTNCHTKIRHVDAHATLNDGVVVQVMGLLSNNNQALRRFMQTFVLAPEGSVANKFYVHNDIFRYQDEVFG

Chain of G3BP1_(NTF2) F33A mutant (Q13283 1-139 F33A): as the sequence (Q13283 1-139) above, with F33A counted along it
Chain of G3BP1_(NTF2) F124A mutant (Q13283 1-139 F124A): as the sequence (Q13283 1-139) above, with F124A counted along it
Chain of G3BP1_(NTF2) Q18A mutant (Q13283 1-139 Q18A): as the sequence (Q13283 1-139) above, with Q18A counted along it
Chain of G3BP1_(NTF2) V11A mutant (Q13283 1-139 V11A): as the sequence (Q13283 1-139) above, with V11A counted along it

Binder: MSDNGPQNQRNAPRITFGGPSDSTG [SARS-CoV-2 N_(1–25) peptide (residues 1-25 of the N protein)]
- fold reduction of binding against wild-type G3BP1_(NTF2) [1]: ~20 fold
- dH (G3BP1_(NTF2) Q18A mutant): -15.1 kcal/mol
- dH (G3BP1_(NTF2) F33A mutant): -21.3 kcal/mol
- fold reduction of binding against wild-type G3BP1_(NTF2) (G3BP1_(NTF2) V11A mutant): ~10 fold

Binder: MSDNGPQNQRNAPRITFTGPSDSTG [SARS-CoV-2 N_(1–25) peptide, G18T mutant]
- fold reduction of binding affinity against wild-type N_(1–25) [2]: ~6 fold

Binder: MSDNGPQNQRNAPRATFGGPSDSTG [SARS-CoV-2 N_(1–25) peptide, I15A mutant]
- fold reduction of binding against wild-type N_(1–25) [2]: > 10 fold

Binder: MSDNGPQNQRNAPRIAFGGPSDSTG [SARS-CoV-2 N_(1–25) peptide, T16A mutant]
- fold reduction of binding against wild-type N_(1–25) [2]: ~3 fold

Reference: publication PMC8882607 (Journal of Molecular Biology, 2022)
